Laboratory results reported in US20240233818 (published 2024).
Substitutions are numbered along the chain they refer to.

T1: cynomolgus HER2 (cynomolgus monkey)
T1 chain: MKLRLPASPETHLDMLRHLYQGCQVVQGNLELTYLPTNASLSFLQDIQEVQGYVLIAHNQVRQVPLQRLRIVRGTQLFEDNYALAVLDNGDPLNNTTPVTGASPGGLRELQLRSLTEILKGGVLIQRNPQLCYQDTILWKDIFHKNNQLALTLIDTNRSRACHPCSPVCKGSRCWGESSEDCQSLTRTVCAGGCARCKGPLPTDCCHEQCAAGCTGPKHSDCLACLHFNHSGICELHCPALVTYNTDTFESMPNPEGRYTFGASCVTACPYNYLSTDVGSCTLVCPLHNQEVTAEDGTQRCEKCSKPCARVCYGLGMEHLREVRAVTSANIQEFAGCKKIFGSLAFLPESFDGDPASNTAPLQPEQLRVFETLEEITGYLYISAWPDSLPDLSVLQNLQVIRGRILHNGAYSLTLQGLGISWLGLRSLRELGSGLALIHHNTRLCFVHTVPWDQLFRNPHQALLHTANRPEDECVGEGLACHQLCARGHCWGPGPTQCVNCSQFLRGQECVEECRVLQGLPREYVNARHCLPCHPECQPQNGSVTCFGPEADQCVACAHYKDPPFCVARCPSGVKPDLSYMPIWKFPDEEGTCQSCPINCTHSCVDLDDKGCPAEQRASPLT

T2: cynomolgus CD137 (cynomolgus monkey)
T2 chain: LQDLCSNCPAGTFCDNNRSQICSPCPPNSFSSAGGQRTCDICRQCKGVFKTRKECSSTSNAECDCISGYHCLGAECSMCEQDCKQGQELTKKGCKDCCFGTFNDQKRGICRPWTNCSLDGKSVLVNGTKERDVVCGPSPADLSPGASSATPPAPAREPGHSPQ

B1: DART-B (HER2 arm) (antibody, V domains shown)
VH: QVQLVQSGAEVKKPGASVKVSCKASGYTFTNYGMNWVRQAPGQGLEWMGWINTNIGEPTYTEEFKGRVTMTRDTSISTAYMELSRLRSDDTAVYYCARDDGYGNRVSYWGQGTLVTVSS
VL: DIQMTQSPSSLSASVGDRVTITCKASQDISNYLSWFQQKPGKAPKTLIYRANRLQSGVPSRFSGSGSGTDFTLTISSLQPEDFATYYCLQHDEFPWTFGQGTKLEIK
B2: DART-G4 (CD137 arm) (antibody, V domains shown)
VH: QVQLVQSGAEVKKPGASVKVSCKASGYTFTSYWINWVKQAPGQGLEWIGNIYPSDSYTNYNQKFKDKATITADKSTSTAYMELSSLRSEDTAVYYCTRDYGSSYSYNVWGQGTTVTVSS
VL: DIQMTQSPSSLSASVGDRVTITCRPSQDISNYLNWYQQKPDKTVKLLIYYTSRLRSGVPSRFSGSGSGTDFTFTISSLQPEDIATYFCQQGDTLPYTFGQGTKLEIK
B3: DART-G2 (CD137 arm) (antibody, V domains shown)
VH: B2 VH with S103A, Y106M, N107S, V108T
VL: B2 VL
B4: DART-G (CD137 arm) (antibody, V domains shown)
VH: B2 VH with Y106F, N107D, V108Y
VL: B2 VL
B5: DART-G3 (CD137 arm) (antibody, V domains shown)
VH: B2 VH with S103A, N107S, V108L
VL: B2 VL
B6: DART-D (CD137 arm) (antibody, V domains shown)
VH: QVQLQQPGAELVRPGASVKLSCKASGYTFTSYWINWVKQRPGQGLEWIGNIYPSDSYTNYNQKFKDKATLTVDKSSSTAYMQLSSPTSEDSAVYYCTRDYGSSYSFDYWGQGTTLTVSS
VL: DIQMTQTTSSLSASLGDRVTISCRPSQDISNYLNWYQQKPDGTVKLLIYYTSRLRSGVPSRFSGSGSGTDYSLTISNLEQEDIATYFCQQGDTLPYTFGGGTKLEIK

Target: human HER2 (human, UniProt P04626)
Assay: SPR

| Kd | Binder |
| --- | --- |
| 0.38 nM | B1 |

Target: T1, cynomolgus HER2
Assay: SPR

| Kd | Binder |
| --- | --- |
| 0.66 nM | B1 |

Target: T2, cynomolgus CD137
Assay: SPR

| Kd | Binder |
| --- | --- |
| 40 nM | B2 |
| 64 nM | B3 |
| 115 nM | B4 |
| 78 nM | B5 |
| 67 nM | B6 |

Target: human CD137 (human, UniProt Q07011)
Sequence (Q07011 24-186): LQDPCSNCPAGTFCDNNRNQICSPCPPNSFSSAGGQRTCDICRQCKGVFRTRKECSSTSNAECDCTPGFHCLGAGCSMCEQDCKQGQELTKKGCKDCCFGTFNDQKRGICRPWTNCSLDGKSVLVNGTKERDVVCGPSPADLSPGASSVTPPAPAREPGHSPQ
Assay: SPR

| Kd | Binder |
| --- | --- |
| 28 nM | B2 |
| 60 nM | B3 |
| 114 nM | B4 |
| 64 nM | B5 |
| 53 nM | B6 |
